According to paper doi:10.1101/2020.08.27.270058:

T1: MglB (Myxococcus xanthus), Q1DB03
T1 chain: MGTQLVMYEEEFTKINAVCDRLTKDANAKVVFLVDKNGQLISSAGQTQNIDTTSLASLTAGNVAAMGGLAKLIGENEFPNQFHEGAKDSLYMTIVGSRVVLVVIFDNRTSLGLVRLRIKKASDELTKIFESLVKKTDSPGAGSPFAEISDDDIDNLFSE


How the values were obtained:
[1] = biological target: MglB (Myxococcus xanthus) (UniProt Q1DB03); assay: SEC
[2] = biological target: MglC (Myxococcus xanthus); assay: SEC
[3] = biological target: MglB (Myxococcus xanthus) (UniProt Q1DB03); assay: SAXS
[4] = biological target: MglC (Myxococcus xanthus); assay: SAXS
[5] = biological target: MglB (Myxococcus xanthus) (UniProt Q1DB03); assay: ITC
[6] = biological target: T1, MglB (Myxococcus xanthus), Q1DB03; assay: SEC; conditions: remark: other sources report otherwise
[7] = biological target: T1, MglB (Myxococcus xanthus), Q1DB03; assay: SAXS; conditions: remark: other sources report otherwise

Row | stoichiometry N (MglC:MglB (2:4)) [1] | stoichiometry N [2] | stoichiometry N (MglC:MglB (2:4)) [3] | stoichiometry N [4] | Kd [5] [nM] | dH [5] [kcal/mol] | stoichiometry N [5] | stoichiometry N [6] | stoichiometry N [7] | Molecule
1 | 0.5 | 2 | 0.5 | 2 | 625 | 6.94 | 0.5 | – | – | MglC (natural protein)
2 | – | – | – | – | – | – | – | 2 | 2 | MglB, Q1DB03 1-159 (natural protein) MGTQLVMYEEEFTKINAVCDRLTKDANAKVVFLVDKNGQLISSAGQTQNIDTTSLASLTAGNVAAMGGLAKLIGENEFPNQFHEGAKDSLYMTIVGSRVVLVVIFDNRTSLGLVRLRIKKASDELTKIFESLVKKTDSPGAGSPFAEISDDDIDNLFSE
